US20120201746A1

Target: Neonatal Fc receptor (FcRn) on CHO-FcRnGPI cells
Test: flow cytometry on CHO-FcRnGPI cells, pH 6.4

EC50: 50.4 nM
Substance: Control mAb (antibody)
